B1: PGT133 (antibody, V domains shown)
VH: QVHLQESGPGLVTPSETLSLTCTVSNGSVSGRFWSWIRQSPGRGLEWIGYFSDTDRSEYNPSLRSRLTLSVDRSKNQLSLRLKSVTAADSATYYCARAQQGKRIYGIVSFGEFFYYYYMDAWGKGTPVTVSS
VL: LSLAPGATAKIPCGERSRGSRAVQWYQQKPGQAPTLIIYNNQDRPAGVSERFSGNPDVAIGVTATLTISRVEVGDEADYYCHYWDSRSPISWIFGGGTQLTVL
B2: PGT124 (antibody, V domains shown)
VH: QVQLQESGPGLVRPSETLSVTCIVSGGSISNYYWTWIRQSPGKGLEWIGYISDRETTTYNPSLNSRAVISRDTSKNQLSLQLRSVTTADTAIYFCATARRGQRIYGVVSFGEFFYYYYMDVWGKGTAVTVSS
VL: SYVSPLSVALGETARISCGRQALGSRAVQWYQHKPGQAPILLIYNNQDRPSGIPERFSGTPDINFGTTATLTISGVEVGDEADYYCHMWDSRSGFSWSFGGATRLTVL

What was measured:
Experiment in all cases: ELISA
[1] = biological target: N332 nanoparticle (1GUT_A_ES-FR)
[2] = biological target: clade-C (ZM109) V1V2-ferritin nanoparticle (V1V2-FR) (HIV-1 ZM109 (clade C) | )
[3] = biological target: gp120-ferritin (gp120-FR) nanoparticle

Binder	EC50 [1]	EC50 [2]	EC50 [3]
B1	0.024 µg/mL	0.26 µg/mL	0.042 µg/mL
B2	0.03 µg/mL	–	0.026 µg/mL

Source: publication PMC5573810 (2017)
